Source: patent US20250189544A1 (CASI PHARMACEUTICALS, published 2025)

T1: Human CD38 (human, UniProt P28907 1-300)
T1 sequence: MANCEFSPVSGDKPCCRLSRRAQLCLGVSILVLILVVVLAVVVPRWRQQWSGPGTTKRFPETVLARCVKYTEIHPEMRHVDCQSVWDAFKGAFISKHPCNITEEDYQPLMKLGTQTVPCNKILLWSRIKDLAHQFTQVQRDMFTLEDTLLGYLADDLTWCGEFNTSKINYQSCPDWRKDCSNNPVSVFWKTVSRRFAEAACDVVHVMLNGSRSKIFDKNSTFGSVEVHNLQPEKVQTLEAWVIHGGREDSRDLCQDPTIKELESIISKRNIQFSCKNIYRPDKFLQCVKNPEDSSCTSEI


Columns and labels:
Human CD38 [1] = molecular target: T1, Human CD38; test: flow cytometry on Ramos cells expressing CD38; negative control, ambiguous regression curve
Human CD38 [2] = molecular target: T1, Human CD38; test: flow cytometry on red blood cells of Donor 2; negative control
Human CD38 [3] = molecular target: T1, Human CD38; test: flow cytometry on red blood cells of Donor 1; negative control
Human CD38 [4] = molecular target: T1, Human CD38; test: flow cytometry on red blood cells of Donor 3; negative control
Human CD38 [5] = molecular target: T1, Human CD38; test: flow cytometry on Raji cells expressing CD38; text value differs from Table 1 (273)
Description: (§1) Cell lines/primary cell type used. […] Daudi, Raji, Ramos and cells were cultured in log-phase in RPMI-1640 Medium (ATCC 30-2001) supplemented with 10% FCS, 2 mM L-glutamine, 100 IU/ml penicillin, 100 μg/ml streptomycin and 1 mM sodium pyruvate (all from ThermoFisher) with viability of >85% as determined by automated cell counter (Countess II FL Automated Cell Counter; ThermoFisher; catalog #AMQAF1000) prior to experiments.
(§2) Cell staining and flow cytometry. All experiments were done in triplicates using a 96-well plate format. 50,000 cells were plated in each well of a 96-well round bottom tissue culture treated plate. […] Following a wash step with FACS cell staining buffer, cells were incubated with secondary antibody (rabbit anti-human Fcγ F(ab′)2 labeled with Alexa Fluor647; Jackson ImmunoResearch Catalog #309-606-008) at 5 μg/ml for 30 minutes on ice in the dark. Cells were washed once more with FACS cell staining buffer and analyzed by flow cytometry using a BD Biosciences FACSCalibur flow cytometer (San Jose, CA). FSC vs SSC gating was used to identify cells of interest. A total of 3,000 live single cells were recorded for each sample and corresponding fluorescent signal intensity histograms were analyzed. The mean fluorescence intensity (MFI) was calculated using FlowJo analysis software (Ashland, Oregon) for each antibody concentration.

Human CD38 [6] = molecular target: T1, Human CD38; test: flow cytometry on Ramos cells expressing CD38
Description: as §1, §2

Human CD38 [7] = molecular target: T1, Human CD38; test: flow cytometry on Daudi cells expressing CD38
Description: as §1, §2

Human CD38 [8] = molecular target: T1, Human CD38; test: flow cytometry on Raji cells expressing CD38
Description: as §1, §2

Row | EC50 (Human CD38 [1]) [µg/mL] | Max MFI (Human CD38 [2]) [MFI] | Max MFI (Human CD38 [3]) [MFI] | Max MFI (Human CD38 [4]) [MFI] | EC50 (Human CD38 [5]) [µg/mL] | EC50 (Human CD38 [6]) [µg/mL] | EC50 (Human CD38 [7]) [µg/mL] | EC50 (Human CD38 [8]) [µg/mL] | Molecule
1 | 0.001 | 2110 | 2560 | 1960 | – | – | – | – | Human IgG1 isotype control antibody
2 | – | – | – | – | 0.373 | 0.412 | 0.382 | 0.273 | CID103 (aCD38-b-348) (antibody, V domains shown) VH: QLQLQESGPGLVKPSETLSLTCTVSGGSISSSDYYWGWIRQPPGKGLEWIGSIYYSGSTYYNPSLKSRVTISVDTSKNQFSLKLSSVTAADTAVYYCARGQYSSGWYAYPFDMWGQGTMVTVSS VL: EIVLTQSPGTLSLSPGERATLSCRASQSVRSSYLAWYQQKPGQAPRLLIYGASSRATGIPDRFSGSGSGTDFTLTISRLEPEDFAVYYCQQDGNVYTFGGGTKVEIK
